From publication PMC12084297, “Cytoplasmic connexin43-microtubule interactions promote glioblastoma stem-like cell maintenance and tumorigenicity” (Cell Death & Disease, 2025) come the findings set out here.

Assay [1] concerns the target β-tubulin (human (endogenous in VTC-001 and VTC-037 GSCs)) (UniProt P07437). As to the kind of experiment: cellular thermal shift assay (CETSA); fresh VTC-037 GSC lysates in non-denaturing buffer treated 1 h with 3-fold dilutions (222.2, 74.0, 24.7, 8.2 and 2.7 nM) of peptide, heat challenge at 57 °C for 20 min, centrifugation, immunoblot of the stable protein normalised to DMSO control; EC50 of target engagement. For orientation: Immunoblotting shows a protein as a band on a membrane.

The target of assay [2] is α-tubulin (human (endogenous in VTC-037 GSCs)) (UniProt P68363). The description is as above.
Chain of α-tubulin (human (endogenous in VTC-037 GSCs)) (P68363 whole entry): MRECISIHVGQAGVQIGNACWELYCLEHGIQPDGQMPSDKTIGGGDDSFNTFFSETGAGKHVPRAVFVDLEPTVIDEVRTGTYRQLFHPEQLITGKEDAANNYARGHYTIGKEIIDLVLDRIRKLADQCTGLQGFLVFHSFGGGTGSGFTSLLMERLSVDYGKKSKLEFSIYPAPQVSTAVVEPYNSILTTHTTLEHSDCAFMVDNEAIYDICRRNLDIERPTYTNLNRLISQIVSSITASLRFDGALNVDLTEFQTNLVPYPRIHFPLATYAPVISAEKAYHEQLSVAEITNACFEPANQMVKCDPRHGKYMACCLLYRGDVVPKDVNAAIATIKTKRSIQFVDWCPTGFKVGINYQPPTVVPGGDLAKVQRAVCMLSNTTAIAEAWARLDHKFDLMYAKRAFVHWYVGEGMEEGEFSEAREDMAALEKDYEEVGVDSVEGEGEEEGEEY

Chain of β-tubulin (human (endogenous in VTC-001 and VTC-037 GSCs)) (P07437 whole entry): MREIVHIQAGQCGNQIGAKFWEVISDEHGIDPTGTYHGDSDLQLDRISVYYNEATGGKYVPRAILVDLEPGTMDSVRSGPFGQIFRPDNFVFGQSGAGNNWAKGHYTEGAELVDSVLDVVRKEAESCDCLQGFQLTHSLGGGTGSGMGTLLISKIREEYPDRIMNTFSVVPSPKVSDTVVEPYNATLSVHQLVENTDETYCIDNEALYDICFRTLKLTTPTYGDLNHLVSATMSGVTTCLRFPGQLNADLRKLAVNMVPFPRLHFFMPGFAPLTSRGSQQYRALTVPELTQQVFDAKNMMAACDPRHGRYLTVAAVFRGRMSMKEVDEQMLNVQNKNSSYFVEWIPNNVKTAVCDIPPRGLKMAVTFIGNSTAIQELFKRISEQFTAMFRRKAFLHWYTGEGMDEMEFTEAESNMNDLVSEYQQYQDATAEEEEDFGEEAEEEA

JM2 (juxtamembrane 2) peptide: the concentration giving a half-maximal response (EC50) in assay [1] was 7.9 nM; in assay [2], 8.4 nM.

For orientation: EC50 means the midpoint of the concentration-response curve.
